Numbered stars: 1 amine (or outer) side, 2 acyl side, 3 side chain; on linkers, the order of the positions; unused ones are H or OH. Bridge positions count the residues as written; N and C are the ends. TRITC = tetramethylrhodamine dye; Cysteamine = C(CS[*:2])N[*:1]; Ahx = NCCCCCC(=O)O

The values below come from patent publication US10471163B2, “Activatable fibrin-binding probes” (priority 2013, dated 2019).

In experiment [1] the target is DD(E) (soluble protein fragment of fibrin) (Homo sapiens, UniProt P02671+P02675+P02679). The following applies: known value used for the competition assay; read-out: dissociation constant (Kd) of the TRITC-Tn6 probe for DD(E), known value; cited from earlier work.
Experiment [2] addresses T1, PDI (Homo sapiens, UniProt P07237). Nature of the experiment: LC-MS analysis of conversion of TRITC-Tn6-MDS to cyclized form. The experiment is classed as biochemical. The protocol: This mixed disulfide (MDS) probe, denoted as TRITC-Tn6-MDS, was then tested to determine whether it could be recognized as a substrate by PDI. Conversion of the probe from the mixed-disulfide (MDS) form to the cyclized form was followed by LC-MS under three sets of reaction conditions (PDI alone; DTT alone; and PDI+DTT). The assay buffer for these experiments was 50 mM TRIS, 100 mM NaCl, 2 mM CaCl, and 0.1% Triton X-100.

In experiment [3] the target is fibrin fragment DD(E) (Homo sapiens, UniProt P02671+P02675+P02679). Put plainly: Direct binding to DD(E) by fluorescence anisotropy. The following applies: serial dilution of DD(E). The method, then:
The binding constants of the TRITC-Tn6-MDS probe and its activated cyclic form were then measured with the fibrin fragment DD(E). A serial dilution of the DD(E) protein was prepared and then mixed with the two probes. […] Therefore, the disulfide linkage of this probe can act as a switch for binding.
On the technique in general: In fluorescence polarisation assays a small probe gives low polarisation when free and higher when bound to something large.

Experiment [4] concerns the target T1, PDI. Put plainly: Real-time fluorescence anisotropy assay of TRITC-Tn6-MDS activation in presence of DD(E). The experiment is classed as biochemical. The following applies: only when both PDI and DTT are present simultaneously; 2 μM DD(E). The method, then: These experiments were conducted in the same assay buffer as was used for the LC-MS experiment described above.

T1 sequence (P07237 18-508, species assumed): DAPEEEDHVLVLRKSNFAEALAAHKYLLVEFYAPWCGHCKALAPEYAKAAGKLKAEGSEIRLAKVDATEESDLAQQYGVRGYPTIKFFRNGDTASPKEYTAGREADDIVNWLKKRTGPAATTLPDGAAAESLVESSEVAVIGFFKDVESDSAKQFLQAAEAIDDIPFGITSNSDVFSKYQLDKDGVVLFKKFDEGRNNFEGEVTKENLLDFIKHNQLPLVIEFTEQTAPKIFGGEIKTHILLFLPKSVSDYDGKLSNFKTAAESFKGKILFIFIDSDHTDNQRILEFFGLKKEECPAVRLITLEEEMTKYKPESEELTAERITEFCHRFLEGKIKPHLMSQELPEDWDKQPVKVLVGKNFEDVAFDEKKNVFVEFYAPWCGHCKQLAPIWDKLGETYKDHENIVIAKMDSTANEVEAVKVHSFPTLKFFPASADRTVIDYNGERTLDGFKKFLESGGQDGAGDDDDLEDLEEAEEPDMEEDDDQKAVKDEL
Chain of DD(E) (soluble protein fragment of fibrin) (P02671 130-216): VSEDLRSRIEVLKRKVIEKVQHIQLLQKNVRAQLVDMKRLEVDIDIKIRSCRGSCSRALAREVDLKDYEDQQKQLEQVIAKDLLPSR
Chain of DD(E) (soluble protein fragment of fibrin) (P02675 164-491): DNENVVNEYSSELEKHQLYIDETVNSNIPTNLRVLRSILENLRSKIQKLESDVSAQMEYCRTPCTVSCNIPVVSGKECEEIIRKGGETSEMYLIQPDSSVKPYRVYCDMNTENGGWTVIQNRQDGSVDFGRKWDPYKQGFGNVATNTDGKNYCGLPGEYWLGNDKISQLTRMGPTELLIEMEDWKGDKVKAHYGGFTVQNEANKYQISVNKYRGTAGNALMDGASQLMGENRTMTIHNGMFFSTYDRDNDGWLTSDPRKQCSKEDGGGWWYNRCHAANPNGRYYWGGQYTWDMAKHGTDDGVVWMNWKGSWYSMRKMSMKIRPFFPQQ
Chain of DD(E) (soluble protein fragment of fibrin) (P02679 114-432): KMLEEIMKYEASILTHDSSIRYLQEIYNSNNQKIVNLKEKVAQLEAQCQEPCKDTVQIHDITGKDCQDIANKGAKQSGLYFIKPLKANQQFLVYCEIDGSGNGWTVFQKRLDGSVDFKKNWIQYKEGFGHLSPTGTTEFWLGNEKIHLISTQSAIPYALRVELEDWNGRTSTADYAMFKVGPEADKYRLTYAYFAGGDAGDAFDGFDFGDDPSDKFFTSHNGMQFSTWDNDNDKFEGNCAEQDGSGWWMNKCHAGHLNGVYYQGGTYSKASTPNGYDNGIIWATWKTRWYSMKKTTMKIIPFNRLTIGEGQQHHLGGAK
Chain of DD(E) (soluble protein fragment of fibrin) (P02671 36-97): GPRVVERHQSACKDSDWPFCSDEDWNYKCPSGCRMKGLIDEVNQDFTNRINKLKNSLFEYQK
Chain of DD(E) (soluble protein fragment of fibrin) (P02675 45-152): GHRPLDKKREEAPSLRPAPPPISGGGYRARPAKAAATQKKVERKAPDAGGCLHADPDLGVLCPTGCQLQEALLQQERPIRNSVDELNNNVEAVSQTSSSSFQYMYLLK
Chain of DD(E) (soluble protein fragment of fibrin) (P02679 27-88): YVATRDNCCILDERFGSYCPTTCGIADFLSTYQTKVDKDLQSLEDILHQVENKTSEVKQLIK
Chain of fibrin fragment DD(E) (P02671 130-216): as the sequence (P02671 130-216) above
Chain of fibrin fragment DD(E) (P02675 164-491): as the sequence (P02675 164-491) above
Chain of fibrin fragment DD(E) (P02679 114-432): as the sequence (P02679 114-432) above
Chain of fibrin fragment DD(E) (P02671 36-97): as the sequence (P02671 36-97) above
Chain of fibrin fragment DD(E) (P02675 45-152): as the sequence (P02675 45-152) above
Chain of fibrin fragment DD(E) (P02679 27-88): as the sequence (P02679 27-88) above

In general, Kd refers to the equilibrium constant for the complex coming apart. For the substance “TRITC-Tn6: fluorescent peptide structurally similar to EP-2104R that binds the same site on DD(E) ({TRITC-Ahx}-QWECPYGLCWIQ-NH2; disulfide 4-9 (inferred))”, the Kd in experiment [1] is 510 nM.
As to “TRITCAha -QWECPYGLCWIQ-NH2 ({TRITC-Ahx}-QWEC(Cysteamine)PYGLC(Cysteamine)WIQ-NH2) [TRITC-Tn6-MDS, linear optical probe; N-terminal tetramethylrhodamine via 6-aminohexanoic acid linker; two cysteines protected as mixed disulfides with cystamine]”, the “conversion of mixed-disulfide form to cyclized form” value in experiment [2] (PDI alone) is recorded as “does not promote cyclization”; in experiment [2] (PDI in the presence of DTT, compared to DTT alone) it was “rapid conversion”. Besides, in experiment [3], the “Kd for DD(E) relative to that of the cyclic form” value is given as “roughly 20 fold”. Moreover, the “activation of the probe (cyclization and binding to DD(E))” value in experiment [4] was “efficiently activated”.
